Test system: Escherichia coli TOP10
Experiment: shrunken log2 fold change of peptide-encoding DNA abundance (4.5 h post-induction vs induction); higher = less antimicrobial activity (less host growth inhibition)
Settings: time post-induction: 4.5 h; library: site-saturation at positions 5, 18, 19, 20
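Note: peptides expressed intracellularly from a pBAD plasmid library in pooled LB shake-flask culture, induced with 0.3% L-arabinose, DNA abundance read by NGS, three biological replicates, DESeq2 with apeglm shrinkage.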

Sequence	shrunken log2 fold change
RRIRLRPPRLPRPRPRPWNYPRP	-0.43
RRIRLRPPRLPRPRPRPWPSPRP	0.341
RRIRLRPPRLPRPRPRPWRHPRP	-0.0415
RRIRLRPPRLPRPRPRPWRSPRP	-0.0908
RRIRLRPPRLPRPRPRPWSHPRP	0.00674
RRIRLRPPRLPRPRPRPWSVPRP	-0.0834
RRIRLRPPRLPRPRPRPWTCPRP	-0.54
RRIRLRPPRLPRPRPRPWTVPRP	-0.176
RRIRLRPPRLPRPRPRPWYWPRP	0.134
RRIRLRPPRLPRPRPRPYALPRP	-0.141
RRIRLRPPRLPRPRPRPYDHPRP	-0.165
RRIRLRPPRLPRPRPRPYDMPRP	-0.921
RRIRLRPPRLPRPRPRPYDSPRP	0.00122
RRIRLRPPRLPRPRPRPYEFPRP	-0.111
RRIRLRPPRLPRPRPRPYEHPRP	-0.583
RRIRLRPPRLPRPRPRPYFIPRP	-1.11
RRIRLRPPRLPRPRPRPYFYPRP	-0.942
RRIRLRPPRLPRPRPRPYGCPRP	-0.318
RRIRLRPPRLPRPRPRPYGGPRP	-0.0286
RRIRLRPPRLPRPRPRPYGLPRP	-0.0893
RRIRLRPPRLPRPRPRPYGQPRP	-0.0159
RRIRLRPPRLPRPRPRPYIEPRP	-0.176
RRIRLRPPRLPRPRPRPYKVPRP	-0.756
RRIRLRPPRLPRPRPRPYKYPRP	0.0639
RRIRLRPPRLPRPRPRPYLKPRP	-0.396

Sequence	shrunken log2 fold change
RRIRLRPPRLPRPRPRPYMSPRP	-0.0167
RRIRLRPPRLPRPRPRPYMVPRP	-0.288
RRIRLRPPRLPRPRPRPYPDPRP	-0.598
RRIRLRPPRLPRPRPRPYSKPRP	-0.434
RRIRLRPPRLPRPRPRPYWNPRP	-1.03
RRIRLRPPRLPRPRPRPYWSPRP	-1.41
RRIRLRPPRLPRPRPRPYYEPRP	-0.493
RRIRLRPPRLPRPRPRPYYGPRP	-0.838
RRIRLRPPRLPRPRPRPYYLPRP	-0.477
RRIRLRPPRLPRPRPRPYYSPRP	-0.309
RRIRMRPPRLPRPRPRPAAVPRP	1.44
RRIRMRPPRLPRPRPRPACAPRP	0.837
RRIRMRPPRLPRPRPRPACCPRP	0.646
RRIRMRPPRLPRPRPRPACMPRP	0.64
RRIRMRPPRLPRPRPRPADEPRP	-0.0062
RRIRMRPPRLPRPRPRPADIPRP	0.067
RRIRMRPPRLPRPRPRPADQPRP	-0.0145
RRIRMRPPRLPRPRPRPAGAPRP	1.28
RRIRMRPPRLPRPRPRPAGDPRP	0.882
RRIRMRPPRLPRPRPRPAGGPRP	0.831
RRIRMRPPRLPRPRPRPAHHPRP	0.0701
RRIRMRPPRLPRPRPRPAHNPRP	0.421
RRIRMRPPRLPRPRPRPAIPPRP	0.0268
RRIRMRPPRLPRPRPRPANDPRP	0.0988
RRIRMRPPRLPRPRPRPARAPRP	1.43

Sequence	shrunken log2 fold change
RRIRMRPPRLPRPRPRPASLPRP	-0.0145
RRIRMRPPRLPRPRPRPASMPRP	0.311
RRIRMRPPRLPRPRPRPASSPRP	-0.00458
RRIRMRPPRLPRPRPRPASTPRP	0.323
RRIRMRPPRLPRPRPRPAVWPRP	1.08
RRIRMRPPRLPRPRPRPAYHPRP	-0.157
RRIRMRPPRLPRPRPRPAYVPRP	-0.114
RRIRMRPPRLPRPRPRPCAFPRP	0.121
RRIRMRPPRLPRPRPRPCKLPRP	-0.00365
RRIRMRPPRLPRPRPRPCKTPRP	-0.00146
RRIRMRPPRLPRPRPRPCMPPRP	-0.106
RRIRMRPPRLPRPRPRPCNCPRP	-0.0499
RRIRMRPPRLPRPRPRPCNEPRP	-0.249
RRIRMRPPRLPRPRPRPCPKPRP	-0.214
RRIRMRPPRLPRPRPRPCQIPRP	-0.0194
RRIRMRPPRLPRPRPRPCTQPRP	-0.111
RRIRMRPPRLPRPRPRPCVPPRP	0.209
RRIRMRPPRLPRPRPRPCWCPRP	-7.44e-05
RRIRMRPPRLPRPRPRPCWFPRP	-0.0997
RRIRMRPPRLPRPRPRPCWPPRP	0.218
RRIRMRPPRLPRPRPRPCWRPRP	0.14
RRIRMRPPRLPRPRPRPCYEPRP	0.0712
RRIRMRPPRLPRPRPRPDCRPRP	0.134
RRIRMRPPRLPRPRPRPDGCPRP	2.12
RRIRMRPPRLPRPRPRPDGRPRP	-0.00101

Sequence	shrunken log2 fold change
RRIRMRPPRLPRPRPRPDITPRP	2.12
RRIRMRPPRLPRPRPRPDLVPRP	1.01
RRIRMRPPRLPRPRPRPDMMPRP	0.187
RRIRMRPPRLPRPRPRPDRFPRP	0.207
RRIRMRPPRLPRPRPRPDSHPRP	-0.025
RRIRMRPPRLPRPRPRPDSPPRP	0.0492
RRIRMRPPRLPRPRPRPDVPPRP	0.323
RRIRMRPPRLPRPRPRPDWQPRP	0.198
RRIRMRPPRLPRPRPRPEAAPRP	3.45
RRIRMRPPRLPRPRPRPEAYPRP	0.036
RRIRMRPPRLPRPRPRPECGPRP	2.7
RRIRMRPPRLPRPRPRPEEDPRP	0.0356
RRIRMRPPRLPRPRPRPEGYPRP	2.64
RRIRMRPPRLPRPRPRPEHCPRP	0.429
RRIRMRPPRLPRPRPRPEHWPRP	-0.00593
RRIRMRPPRLPRPRPRPEIAPRP	0.0315
RRIRMRPPRLPRPRPRPEIVPRP	0.574
RRIRMRPPRLPRPRPRPEKDPRP	2.62
RRIRMRPPRLPRPRPRPEKFPRP	-0.000921
RRIRMRPPRLPRPRPRPEKHPRP	0.921
RRIRMRPPRLPRPRPRPELTPRP	3.52
RRIRMRPPRLPRPRPRPEMCPRP	3.01
RRIRMRPPRLPRPRPRPENSPRP	2.07
RRIRMRPPRLPRPRPRPEPHPRP	1.43
RRIRMRPPRLPRPRPRPEPLPRP	0.277

Sequence	shrunken log2 fold change
RRIRMRPPRLPRPRPRPEPMPRP	0.386
RRIRMRPPRLPRPRPRPEPPPRP	1.76
RRIRMRPPRLPRPRPRPEQEPRP	0.033
RRIRMRPPRLPRPRPRPERYPRP	0.362
RRIRMRPPRLPRPRPRPETAPRP	4.06
RRIRMRPPRLPRPRPRPETGPRP	0.321
RRIRMRPPRLPRPRPRPETKPRP	0.253
RRIRMRPPRLPRPRPRPEVCPRP	0.0476
RRIRMRPPRLPRPRPRPEVHPRP	-0.0544
RRIRMRPPRLPRPRPRPEWHPRP	0.161
RRIRMRPPRLPRPRPRPEYYPRP	-0.218
RRIRMRPPRLPRPRPRPFADPRP	2.11
RRIRMRPPRLPRPRPRPFAEPRP	0.625
RRIRMRPPRLPRPRPRPFAMPRP	0.171
RRIRMRPPRLPRPRPRPFDNPRP	0.0191
RRIRMRPPRLPRPRPRPFEEPRP	0.0197
RRIRMRPPRLPRPRPRPFEMPRP	0.0316
RRIRMRPPRLPRPRPRPFFTPRP	-0.054
RRIRMRPPRLPRPRPRPFGMPRP	-0.0241
RRIRMRPPRLPRPRPRPFLKPRP	-0.636
RRIRMRPPRLPRPRPRPFMDPRP	-0.119
RRIRMRPPRLPRPRPRPFMEPRP	-0.096
RRIRMRPPRLPRPRPRPFPKPRP	0.385
RRIRMRPPRLPRPRPRPFRCPRP	-0.0869
RRIRMRPPRLPRPRPRPFRDPRP	0.00601

Sequence	shrunken log2 fold change
RRIRMRPPRLPRPRPRPFRMPRP	0.00199
RRIRMRPPRLPRPRPRPFWAPRP	0.509
RRIRMRPPRLPRPRPRPFWMPRP	0.154
RRIRMRPPRLPRPRPRPFYNPRP	-0.141
RRIRMRPPRLPRPRPRPFYSPRP	-0.0137
RRIRMRPPRLPRPRPRPGAYPRP	0.0666
RRIRMRPPRLPRPRPRPGCAPRP	1.09
RRIRMRPPRLPRPRPRPGDFPRP	0.215
RRIRMRPPRLPRPRPRPGGSPRP	1.07
RRIRMRPPRLPRPRPRPGHNPRP	0.231
RRIRMRPPRLPRPRPRPGICPRP	0.507
RRIRMRPPRLPRPRPRPGITPRP	0.133
RRIRMRPPRLPRPRPRPGKHPRP	4.3
RRIRMRPPRLPRPRPRPGKRPRP	0.078
RRIRMRPPRLPRPRPRPGLEPRP	1.61
RRIRMRPPRLPRPRPRPGLNPRP	0.223
RRIRMRPPRLPRPRPRPGLVPRP	0.294
RRIRMRPPRLPRPRPRPGNIPRP	-0.115
RRIRMRPPRLPRPRPRPGNWPRP	0.561
RRIRMRPPRLPRPRPRPGQFPRP	0.0853
RRIRMRPPRLPRPRPRPGSLPRP	0.432
RRIRMRPPRLPRPRPRPGTAPRP	0.793
RRIRMRPPRLPRPRPRPGTEPRP	0.562
RRIRMRPPRLPRPRPRPGTMPRP	-0.115
RRIRMRPPRLPRPRPRPGTWPRP	0.043

From the supplement of paper PMC9112550, “Optimization of the antimicrobial peptide Bac7 by deep mutational scanning” (BMC Biology, 2022)
